Numbered stars: 1 amine (or outer) side, 2 acyl side, 3 side chain; on linkers, the order of the positions; unused ones are H or OH. Square brackets hold non-standard residues; d marks the D form. Side chains are listed from the residue outwards. * marks the point of attachment. C18 diacid = O=C(O)CCCCCCCCCCCCCCCCC(=O)*; γGlu = O=C(O)[C@H](CCC(=O)[*:2])N[*:1]; Chem. 28 = not defined here; Chem. 29 = not defined here; AEEA = NCCOCCOCC(=O)O; Aib = CC(C)(N)C(=O)O
T1: human GIP receptor (human, UniProt P48546 22-466)
T1 sequence (looked up): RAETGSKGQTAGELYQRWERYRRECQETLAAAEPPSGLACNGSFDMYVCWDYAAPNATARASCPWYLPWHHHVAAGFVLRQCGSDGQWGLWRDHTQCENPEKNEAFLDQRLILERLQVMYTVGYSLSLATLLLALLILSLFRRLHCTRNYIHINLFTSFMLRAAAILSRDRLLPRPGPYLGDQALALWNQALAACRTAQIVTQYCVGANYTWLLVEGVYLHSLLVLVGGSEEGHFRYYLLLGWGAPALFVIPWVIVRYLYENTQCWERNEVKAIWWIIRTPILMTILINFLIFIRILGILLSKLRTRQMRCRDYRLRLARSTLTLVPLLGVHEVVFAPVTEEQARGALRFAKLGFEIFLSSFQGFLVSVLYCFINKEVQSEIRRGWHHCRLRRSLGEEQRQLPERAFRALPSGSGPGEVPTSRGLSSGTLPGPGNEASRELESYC

T2: human amylin-3(a) receptor (human, UniProt P30988 25-474; O60896 24-148)
T2 sequence (looked up) 1: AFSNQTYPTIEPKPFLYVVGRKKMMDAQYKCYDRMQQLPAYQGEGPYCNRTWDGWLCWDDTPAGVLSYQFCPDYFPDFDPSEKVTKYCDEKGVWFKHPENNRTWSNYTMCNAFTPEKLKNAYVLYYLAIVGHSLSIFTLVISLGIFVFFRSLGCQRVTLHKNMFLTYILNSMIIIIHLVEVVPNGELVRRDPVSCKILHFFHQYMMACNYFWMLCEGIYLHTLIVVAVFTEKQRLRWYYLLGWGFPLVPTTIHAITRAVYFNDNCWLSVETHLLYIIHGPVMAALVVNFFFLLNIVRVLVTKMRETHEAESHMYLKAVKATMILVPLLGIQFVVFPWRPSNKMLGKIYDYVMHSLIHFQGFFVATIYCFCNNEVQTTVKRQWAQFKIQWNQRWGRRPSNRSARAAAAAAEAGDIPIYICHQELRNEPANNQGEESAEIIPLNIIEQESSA
T2 sequence (looked up) 2: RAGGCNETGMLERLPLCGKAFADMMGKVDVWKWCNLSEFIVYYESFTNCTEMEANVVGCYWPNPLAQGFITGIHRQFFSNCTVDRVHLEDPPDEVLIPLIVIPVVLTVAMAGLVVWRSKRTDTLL

B1: Compound 28 (peptide)
peptide: Y[Aib]EGTFTSDYSILLEEQAAREFIEWLLAGGPSK(Chem. 28)GEASELSTAALARLSAELHRLATLPRTETGSGSP-NH2
modifications: reading uncertain
B2: Compound 18 (peptide)
peptide: Y[Aib]EGTFTSDYSILLEEQAAREFIEWLLAGGPSK(Chem. 29)GEASELSTAALGRLSAELHRLATLPRTETGSGSP-NH2
modifications: reading uncertain
B3: Compound 44 (peptide)
peptide: H[Aib]HGTFTSDYSILLEEQAAREFIEWLLAGGPSK(Chem. 28)GALAQTLGTNEASELSTAALGRLSAELHRLATLPRTETGSGSP-NH2
modifications: reading uncertain
B4: Compound 23 (peptide)
peptide: Y[Aib]EGTFTSDYSILLEEQAAREFIEWLLAGGPSK(Chem. 28)GALAQTLGTNEASELSTAALGRLSAELHELATLPRTETGSGSP-NH2
modifications: reading uncertain
B5: Compound 25 (peptide)
peptide: H[Aib]HGTFTSDYSILLEEQAAREFIEWLLAGGPSK(Chem. 28)GEASELSTAALGRLSAELHRLATLPRTETGSGSP-NH2
modifications: reading uncertain
B6: Compound 22 (peptide)
peptide: H[Aib]HGTFTSDYSILLEEQAAREFIEWLLAGGPSK(Chem. 28)GAPPPSLAQTLAQTLASELSTAALGRLSAELHELATLPRTETGSGSP-NH2
modifications: reading uncertain
B7: Compound 24 (peptide)
peptide: Y[Aib]EGTFTSDYSILLEEQAAREFIEWLLAGGPSK(Chem. 28)GALAQTLFVNQASELSTAALGRLSAELHELATLPRTETGSGSP-NH2
modifications: reading uncertain
B8: Compound 31 (peptide)
peptide: Y[Aib]EGTFTSDYSILLEEQAAREFIEWLLAGGPSSK(Chem. 28)APPPSGGGEASELSTAALGRLSAELHRLATLPRTETGSGSP-NH2
modifications: reading uncertain
B9: Compound 36 (peptide)
peptide: H[Aib]HGTFTSDYSILLEEQAAREFIEWLLAGGPSK(Chem. 28)GEASHLSTAQTARLSAELHELATLPRTETGSGSP-NH2
modifications: reading uncertain
B10: Compound 13 (peptide)
peptide: Y[Aib]EGTFTSDYSILLEEQAAREFIEWLLAGGPSK([AEEA-AEEA-γGlu-C18 diacid])GAPPPSGGGGASELSTAALGRLSAELHRLATLPRTETGSGSP-NH2
B11: Compound 19 (peptide)
peptide: Y[Aib]EGTFTSDYSILLEEQAAREFIEWLLAGGPSK(Chem. 28)GEASELSTAALGRLSAELHRLATLPRTETGSGSP-NH2
modifications: reading uncertain
B12: Compound 30 (peptide)
peptide: H[Aib]HGTFTSDYSILLEEQAAREFIEWLLAGGPSK(Chem. 28)GAPPPSGGGEASELSTAALGRLSAELHRLATLPRTETGSGSP-NH2
modifications: reading uncertain
B13: Compound 66 (peptide)
peptide: H[Aib]HGTFTSDYSILLEEQAAREFIEWLLAGGPSK([AEEA-AEEA-γGlu-C18 diacid])GEASQLSTAALGRLSAELHHLATLPRTETGSGSP-NH2
B14: Compound 27 (peptide)
peptide: Y[Aib]EGTFTSDYSILLEEQAAREFIEWLLAGGPSK(Chem. 28)GEASELSTAQLGRLSAELHRLATLPRTETGSGSP-NH2
modifications: reading uncertain
B15: Compound 21 (peptide)
peptide: Y[Aib]EGTFTSDYSILLEEQAAREFIEWLLAGGPSK(Chem. 28)GALAQTLAQTLASELSTAALGRLSAELHELATLPRTETGSGSP-NH2
modifications: reading uncertain
B16: Compound 54 (peptide)
peptide: Y[Aib]EGTFTSDYSILLEEQAAREFIEWLLAGGPSSGAGQAPGQAPGASK(Chem. 28)LSTAQTQRLSAELHRLATLPRTETGSGSP-NH2
modifications: reading uncertain
B17: Compound 32 (peptide)
peptide: Y[Aib]EGTFTSDYSILLEEQAAREFIEWLLAGGPSK(Chem. 28)GAEASELSTAALGRLSAELHELATLPRTETGSGSP-NH2
modifications: reading uncertain
B18: Compound 46 (peptide)
peptide: H[Aib]HGTFTSDYSILLEEQAAREFIEWLLAGGPSK(Chem. 28)GAGQAPGQAPGASHLSTAALGRLSAELHRLATLPRTETGSGSP-NH2
modifications: reading uncertain
B19: Compound 20 (peptide)
peptide: Y[Aib]EGTFTSDYSILLEEQAAREFIEWLLAGGPSK(Chem. 29)GASELSTAALGRLSAELHRLATLPRTETGSGSP-NH2
modifications: reading uncertain
B20: Compound 29 (peptide)
peptide: Y[Aib]EGTFTSDYSILLEEQAAREFIEWLLAGGPSK(Chem. 28)GEASELSTAALGRLSAELHYLATLPRTETGSGSP-NH2
modifications: reading uncertain

How the values were obtained:
Assay in all cases: cell-based or functional assay
[1] = target: T1, human GIP receptor
[2] = target: T3, human GLP-1 receptor (human, UniProt P43220 24-463)
[3] = target: T2, human amylin-3(a) receptor
[4] = target: T1, human GIP receptor; remark: listed apart in the source
[5] = target: T3, human GLP-1 receptor; remark: listed apart in the source
[6] = target: T2, human amylin-3(a) receptor; remark: listed apart in the source

Binder	hGIPR Potency, no HSA, EC50 [pM] [1] [pM]	hGLP-1R Potency, no HSA, EC50 [pM] [2] [pM]	hAMYR3 Potency, no HSA, EC50 [pM] [3] [pM]	hGIPR Potency, 1% HSA, EC50 [pM] [4] [pM]	hGLP-1R Potency, 1% HSA, EC50 [pM] [5] [pM]	hAMYR3 Potency, 1% HSA, EC50 [pM] [6] [pM]
B1	3.5	96	2.28	–	–	–
B2	7.25	52.8	3.93	–	–	–
B3	6.3	3.68	3.8	–	–	–
B4	1.2	15.3	5.17	–	–	–
B5	4.27	2.87	3.22	–	–	–
B6	35.8	11.3	10.9	–	–	–
B7	2.34	51.5	4.24	–	–	–
B8	4.73	47.8	2.69	–	–	–
B9	1.96	3.19	3.84	226	208	137
B10	2.4	37.9	2.26	–	–	–
B11	9.44	57.9	4.24	–	–	–
B12	6.8	6.37	2.28	–	–	–
B13	2.39	5.25	2.32	–	–	–
B14	2.11	26.2	3.82	–	–	–
B15	8.63	41.2	12	–	–	–
B16	5.56	28.8	3.02	–	–	–
B17	8.09	27.6	10.1	–	–	–
B18	5.42	4.59	4.41	–	–	–
B19	4.82	40.6	3.65	–	–	–
B20	2.62	27.1	3.09	–	–	–

— US20260174875A1 (Novo Nordisk A/S, priority 2023, published 2026)
